Source: US20240417484A1, “ANTIGEN-BINDING POLYPEPTIDES AGAINST CD73” (UNIVERSITÄTSKLINIKUM HAMBURG-EPPENDORF, priority 2021, published 2024)

T1: soluble human CD73 (Homo sapiens, UniProt P21589)
T1 construct: The ectodomain of CD73 (aa 27-549) was expressed as a recombinant protein with a C-terminal His6× tag; His6 (C); made in house; host or cells: transiently transfected HEK cells
T1 sequence (P21589 27-549): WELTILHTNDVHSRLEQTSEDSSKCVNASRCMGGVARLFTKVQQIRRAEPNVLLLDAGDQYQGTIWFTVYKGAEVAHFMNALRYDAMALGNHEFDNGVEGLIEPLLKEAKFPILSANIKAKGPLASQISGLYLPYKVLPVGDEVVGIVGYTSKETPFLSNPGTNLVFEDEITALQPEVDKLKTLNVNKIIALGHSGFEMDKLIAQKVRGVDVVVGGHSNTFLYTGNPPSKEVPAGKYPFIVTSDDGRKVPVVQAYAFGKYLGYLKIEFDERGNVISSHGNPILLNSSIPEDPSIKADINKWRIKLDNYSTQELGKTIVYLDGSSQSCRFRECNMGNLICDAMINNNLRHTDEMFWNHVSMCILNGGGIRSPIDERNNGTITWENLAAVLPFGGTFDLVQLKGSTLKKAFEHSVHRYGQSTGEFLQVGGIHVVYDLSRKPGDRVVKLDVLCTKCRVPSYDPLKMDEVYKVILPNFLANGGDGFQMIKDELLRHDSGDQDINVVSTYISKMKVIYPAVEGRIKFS

T2: native CD73 on the cell surface of peripheral blood leukocytes (PBMCs) (Homo sapiens, UniProt P21589)
T2 construct: endogenous in cells; host or cells: human PBMCs (B and T lymphocytes)
T2 sequence (P21589 27-549): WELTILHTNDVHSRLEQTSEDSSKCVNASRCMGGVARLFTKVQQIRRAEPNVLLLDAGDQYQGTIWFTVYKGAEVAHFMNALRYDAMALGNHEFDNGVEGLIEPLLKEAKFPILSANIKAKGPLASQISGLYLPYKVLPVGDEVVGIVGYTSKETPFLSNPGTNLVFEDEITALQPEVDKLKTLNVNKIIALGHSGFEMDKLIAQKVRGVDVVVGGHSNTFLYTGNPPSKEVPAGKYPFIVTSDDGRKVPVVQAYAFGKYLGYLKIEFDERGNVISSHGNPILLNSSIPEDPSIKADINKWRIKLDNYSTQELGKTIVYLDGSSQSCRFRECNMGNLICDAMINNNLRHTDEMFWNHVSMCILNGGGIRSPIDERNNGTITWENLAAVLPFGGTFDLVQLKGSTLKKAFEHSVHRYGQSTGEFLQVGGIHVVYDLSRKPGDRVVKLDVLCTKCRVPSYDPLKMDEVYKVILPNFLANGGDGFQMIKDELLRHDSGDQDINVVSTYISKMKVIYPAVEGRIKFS

T3: human CD73 (Homo sapiens, UniProt P21589)
T3 construct: expressed in transfected cells; stably transfected in method 5.1)
T3 sequence (P21589 27-549): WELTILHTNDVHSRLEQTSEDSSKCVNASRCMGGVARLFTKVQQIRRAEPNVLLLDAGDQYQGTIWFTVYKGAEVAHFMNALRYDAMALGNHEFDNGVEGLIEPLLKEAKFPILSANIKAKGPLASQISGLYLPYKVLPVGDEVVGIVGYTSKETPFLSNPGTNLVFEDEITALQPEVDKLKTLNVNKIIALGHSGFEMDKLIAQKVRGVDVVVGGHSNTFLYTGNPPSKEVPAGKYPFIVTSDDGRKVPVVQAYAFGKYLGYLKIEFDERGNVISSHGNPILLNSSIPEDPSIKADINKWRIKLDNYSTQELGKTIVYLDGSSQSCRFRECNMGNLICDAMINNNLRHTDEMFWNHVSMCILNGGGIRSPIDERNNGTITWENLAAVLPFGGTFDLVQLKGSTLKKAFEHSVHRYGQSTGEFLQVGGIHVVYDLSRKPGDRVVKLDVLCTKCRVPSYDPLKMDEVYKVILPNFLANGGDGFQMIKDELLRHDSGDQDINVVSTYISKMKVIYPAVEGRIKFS

T4: CD73-expressing human AML-OCI3 cells (Homo sapiens, UniProt P21589)
T4 construct: CD73-expressing human AML-OCI3 cells (AML cell line); endogenous in cells; host or cells: OCI-AML3 human AML cell line
T4 sequence (P21589 27-549): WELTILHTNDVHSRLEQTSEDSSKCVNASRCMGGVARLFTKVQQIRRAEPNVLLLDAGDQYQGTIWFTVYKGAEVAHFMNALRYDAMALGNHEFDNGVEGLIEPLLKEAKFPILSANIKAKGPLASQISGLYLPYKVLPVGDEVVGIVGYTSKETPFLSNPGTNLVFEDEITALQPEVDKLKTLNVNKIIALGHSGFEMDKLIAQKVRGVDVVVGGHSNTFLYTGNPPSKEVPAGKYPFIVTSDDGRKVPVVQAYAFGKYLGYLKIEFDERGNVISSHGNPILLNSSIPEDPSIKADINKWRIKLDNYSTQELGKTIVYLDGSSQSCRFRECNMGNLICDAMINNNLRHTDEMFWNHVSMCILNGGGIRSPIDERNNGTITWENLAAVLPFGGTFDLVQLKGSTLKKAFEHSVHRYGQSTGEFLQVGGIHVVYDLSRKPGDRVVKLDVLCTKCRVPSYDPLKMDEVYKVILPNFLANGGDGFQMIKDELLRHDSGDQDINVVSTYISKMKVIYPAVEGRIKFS


Columns and labels:
[1] = target: T1, soluble human CD73; experiment: Off-rates of soluble CD73 from immobilized Nb-rbIgG hcAb on Octet BLI; type: binding; settings: soluble human CD73 ectodomain 200 ng/μl as analyte; Nb-rbIgG hcAb immobilized on protein A biosensor
Description: The binding off-rate constants of bivalent hcAbs to human and mouse CD73 protein were determined by […] kinetic analysis on Octet RED96 (ForteBio). Immobilization of rabbit IgG hcAbs on the protein A-biosensor surface was done in HEK-6E cell supernatant, and regeneration of analytes was done with 100 mM Glycin pH=2.5. Recombinant mouse or human CD73 ectodomain was used as analytes and tested at a saturating dose of 200 ng/μl. Sensorgrams were fitted using least square regression in association than dissociation Model in Prism8 (Graphpad).

[2] = target: T2, native CD73 on the cell surface of peripheral blood leukocytes (PBMCs); experiment: Flow cytometry binding of hcAbs to native CD73 on blood leukocytes; settings: lymphocyte gate, co-stained for CD3 and CD19
Description: Purified hcAbs were analysed for binding to native CD73 on the cell surface of peripheral blood leukocytes (PBMCs) by flow cytometry. To this end purified human PBMCs were incubated for 30 min at RT with 10 μl of rabbit hcAb-containing HEK-6E cell supernatants and bound antibodies were detected with a FITC conjugated anti rabbit IgG secondary antibody. To distinguish between B lymphocytes most of which express high levels of cell surface CD73, and T lymphocytes a subset of which express moderate levels of cell surface CD73, cells were co-stained with PE-conjugated mouse anti-human CD3 mAb (UCHT1) and a PerCP/Cy5.5-conjugated mouse anti-human CD19 mAb (HIB19). After washing the cells, cells were analyzed by flow cytometry. A hcAb binding only to murine CD39 (SB30) was used as a negative control. […] Gating was performed on lymphocytes on the basis of forward and side scattered light.

[3] = target: T3, human CD73; experiment: Flow cytometry binding of rabbit IgG hcAbs to human CD73-transfected HEK cells; design: key: binding to human (h) and mouse (m) CD73; binding to human (h) and mouse (m) CD73; settings: family representative clone; h = binds human CD73, m = binds mouse CD73
Description: HEK cells were co-transfected with expression vectors for green fluorescent protein (GFP) and human CD73, mouse CD73, and a control cell surface protein (CD39). 48 h after transfection, cells were incubated with HEK cell supernatants containing the indicated rabbit IgG hcAbs. Bound antibodies were detected with PE-conjugated anti rabbit IgG secondary antibody.
• 5.1 Untransfected HEK293 cells and HEK293 cells stably transfected with human or mouse CD73 were incubated for 30 min with HEK-6E cell supernatants containing rabbit IgG hcAbs (diluted 1:10 in PBS/0.1% BSA). Following washing with PBS/0.1% BSA, bound antibodies were detected with PE-conjugated goat anti-rabbit IgG polyclonal antibody (711-116-152 Dianova, Hamburg). • 5.2 For dissociation analyses, two separate aliquots of CD73-transfected cells were incubated either with Cell Proliferation Dye eFluor 450 (eBioscience) or with hcAbs for 20 min at RT. Cells were washed four times, mixed at a 1:1 ratio and further incubated at RT for 120 min before staining of bound antibodies with PE-conjugated goat anti-rabbit IgG polyclonal antibody. The dissociation of hcAbs from the target cells and association with the eFluor 450 labeled cells was analyzed by flow cytometry using the FlowJo software (Treestar). • 5.3 For epitope analyses, cells were preincubated with excess human IgG hcAbs (10 μl HEK-6E cell supernatant/100 μl PBS/0.1% BSA) for 30 min at RT before addition of Nb-rabbit IgG hcAbs (1 μl HEK-6E cell supernatant/100 μl PBS/0.1% BSA) and further incubation for 20 min at RT and staining with PE-conjugated anti-rabbit polyclonal antibody (711-116-152 Dianova, Hamburg). Cells were washed and analyzed by flow cytometry on a BD-FACS Canto. Data were analyzed using the FlowJo software (Treestar).
The binding specificities of the purified hcAbs were determined by flow cytometry using HEK cells transiently co-transfected with expression vectors for GFP and either mouse CD73, human CD73 or a control protein (CD39). 1×10^6 cells were incubated with 10 μl of the Nb-rbIgG hcAb containing HEK-6E cell supernatants for 30 min at 4° C. After washing, the cells were incubated with PE-conjugated anti-rabbit IgG polyclonal antibody (711-116-152 Dianova, Hamburg) and washed twice. The cells were resuspended in PBS and analyzed by flow cytometry on FACS Canto or FACS Celesta (BD Biosciences, Heidelberg). Data evaluation was conducted using the software FlowJo (Treestar, Stanford, US).

[4] = target: T1, soluble human CD73; experiment: AMP degradation by soluble CD73, luminometric AMPglow assay; type: biochemical; settings: CD73 present as soluble enzyme; compared with dimeric SB116 or SB188 Fc constructs
Description: (§1) Soluble recombinant human CD73 or CD73-expressing human […] cells were incubated with CD73-specific dimeric clones SB116-rbFc, SB188-rbFc, biparatopic SB116-188-Alb trimers or with non-binding L-10e-rbFc clone (control). AMP was added and AMP degradation was measured using the luminometric AMPglow assay. Data analyses were performed using Prism (Graphpad).

[5] = target: T4, CD73-expressing human AML-OCI3 cells; experiment: AMP degradation by cell bound CD73, luminometric AMPglow assay; type: cell-based; settings: CD73 expressed on the cell surface of OCI-AML3 cells; compared with dimeric SB116 or SB188 Fc constructs
Description: AMP was added and AMP degradation was measured using the luminometric AMPglow assay. Data analyses were performed using Prism (Graphpad).
as §1

Molecule	Kdis [1] [s⁻¹]	staining of native CD73 on human PBMCs [2]	specificity [3]	blockade of CD73-mediated AMP degradation [4]	blockade of CD73-mediated AMP degradation [5]
SB142: CD73-specific alpaca VHH clone, family 2 in Tables 1-2, SEQ ID NO:73; tested as rabbit IgG hcAb (antibody, left off: a dimerising Fc or GST, tested as rabbit IgG hcAb) heavy: QVQLVESGGGLVQPGGSLRLSCAASGFTFINYHMSWLRQAPGKGLEWVSEIHSRGDITSYTNSVKGRFTISRDNAKNTLYLQMNSLKFDDTAVYYCARSRDLFGEGEYDYWGRGTQVTVSS	0.00036	on most B cells and on a subset of T cells	h	–	–
SB116-188-Alb: biparatopic SB116-188-Alb trimers, anti-CD73 nanobody heterotrimer (protein, left off: small tags and cut ends; another chain or arm of the molecule, biparatopic SB116-188-Alb trimers, anti-CD73 nanobody heterotrimer) chain (part 1 of 2): QVKLQESGGGRVQTGGSLRLSCAASGISFSITTMYWYRQAPGEQRQLVALITDRGNTYYVDSVKGRFTISRDDSKNTVYLQMNDLKPEDTAVYFCNSIPGNDWGQGTQVTVSS chain (part 2 of 2): QVQLVESGGGLVQAGGSLRLSCAASGFTFINYHMSWLRQAPGKEREFVAEIHSRGDITSYTNSVKGRFTISRDNAKNTVYLQMNSLKPEDTAVYYCARSRDLFNEGEYDYWGRGTQVTVSS	–	–	–	enhanced blockade of CD73-mediated AMP degradation when compared to dimeric SB116 or SB188 Fc constructs	less potent compared to dimeric SB116 or SB188 Fc constructs
